# T1: human BCMA expressed on cells (human, UniProt Q02223 1-184)
# T1 construct: whole, on cells; also called human BCMA HEK293; ARH77-hBCMA 10B5 BCMA expressing transfectant cells
# T1 sequence (looked up): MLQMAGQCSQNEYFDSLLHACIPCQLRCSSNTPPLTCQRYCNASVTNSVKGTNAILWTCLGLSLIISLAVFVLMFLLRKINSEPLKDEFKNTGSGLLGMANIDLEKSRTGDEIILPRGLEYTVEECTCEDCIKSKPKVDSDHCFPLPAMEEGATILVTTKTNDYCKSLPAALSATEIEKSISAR
# Columns and labels:
# [1] = biological target: T1, human BCMA expressed on cells; test: FACS on ARH77-hBCMA 10B5 transfectant cells, antibody 5 µg/mL, PE anti-mouse IgG
# Description: (§1) Cells were incubated for 20 mins at room temperature (RT) and then washed with FACS buffer (PBS+0.5% BSA+0.1% sodium azide) to remove unbound antibody. Cells were incubated with a secondary PE labelled anti-mouse IgG antibody for 15 minutes at RT and then washed with FACS buffer to remove unbound antibody. Cells were analysed by FACS to detect antibody bound to the cells.
# [2] = biological target: T1, human BCMA expressed on cells; test: FACS on H929 multiple myeloma cells, PE anti-mouse IgG
# Description: as §1
# [3] = biological target: T2, recombinant human BCMA, in house material (human, UniProt Q02223 4-53, limits assumed); test: ProteOn SPR run 2, antibody captured on Protein A, 25C
# T2 construct: also called Human in house BCMA; In house human BCMA
# [4] = biological target: T3, recombinant cyno BCMA, in house material (cyno, UniProt A0A2K5UD97 4-52); test: as above
# T3 construct: also called Cyno in house BCMA
# T3 sequence (A0A2K5UD97 entry or part of it): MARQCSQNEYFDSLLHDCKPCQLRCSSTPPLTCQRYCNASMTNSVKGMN
binder,measurement,setting,value
"murine S332126E04 (antibody, V domains shown, Murine hybridoma antibody) VH: QVQLQQPGAELVKPGASVKLSCKASGYTFTNYWMHWVKQRPGQGLEWIGIIHPNSGSTNYNEKFKSKATLTVDKSSSTAYMQLSSLTSEDSAVYYCARGIYDYPFAYWGQGTLVTVSS VL: DIVLTQSPASLAVSLGQRATISCRASESVSIHGTHLMHWYQQKPGQPPKLLIYAASNLESGVPARFSGSGSETDFTLNIHPVEEEDAATYFCQQSIEDPYTFGGGTKLEIKR",binding result,[1],binds
"murine S307118G03 (antibody, IgG2a, V domains shown, Murine hybridoma antibody; also called S307118G03 (murine parental mAb)) VH: EVQLQQSGPELVKPGASVKISCKASGYTFTDYYMKWVKQSHGKSLEWIGEIYPNNGGITYNQKFKGKATLTVDKSSSTAYMELRSLTSEDSAVYYCANGYEFVYWGQGTLVTVSA VL: DIQMTQTASSLSASLGDRVTISCSASQGISNYLNWYQQKPDGTVKLLIYYTSSLHSGVPSRFSGSGSGTDYSLTISNLEPEDIATYYCQQYSKLPWTFGGGTKLEIKR",binding result,[2],binds
"S307118G03 H5L1 (antibody, human IgG1, kappa, V domains shown, Humanised, human IgG1 kappa; also called S307118G03 humanised H5L1) VH: QVQLVQSGAEVKKPGSSVKVSCKASGYTFTDYYMKWVRQAPGQGLEWIGEIYPNNGGITYNQKFKGRATLTVDKSTSTAYMELSSLRSEDTAVYYCANGYEFDYWGQGTLVTVSS VL: DIQMTQSPSSLSASVGDRVTITCSASQGISNYLNWYQQKPGKAPKLLIYYTSSLHSGVPSRFSGSGSGTDYTLTISSLQPEDFATYYCQQYSKLPWTFGQGTKLEIKR",binding result,[3],no binding (tested: up to 256 nM)
same,binding result,[4],no binding
